The source of these data is patent US20160289285A1 (Molecular Partners, published 2016).

Where “and” joins values, the source holds several entries; their conditions need not be identical. Equal values may be shown once. Read-outs that look alike come from different tables or passages of the source.

B1: human VEGF-A (ligand, UniProt P15692-4 27-191, looked up)
chain: APMAEGGGQNHHEVVKFMDVYQRSYCHPIETLVDIFQEYPDEIEYIFKPSCVPLMRCGGCCNDEGLECVPTEESNITMQIMRIKPHQGQHIGEMSFLQHNKCECRPKKDRARQENPCGPCSERRKHLFVQDPQTCKCSCKNTDSRCKARQLELNERTCRCDKPRR
notes: Recombinant, bought or produced in CHO or Pichia pastoris; also called hVEGF-A

Assay [1] addresses T1, human HGF (human, UniProt P14210 32-728).
T1 construct: also called hepatocyte growth factor
Nature of the assay: SPR (ProteOn), human HGF immobilised, injection scheme PBST-hVEGF-A-PBST. As to the method:
FIG. 8. SPR analysis of recombinant binding proteins. […] The control injections indicate that no unspecific interaction occurs. RU: resonance units; t: time in seconds.
SPR was measured in a similar way as described in Example 2, with the following setup. 2700 RU human HGF were immobilized on a sensor chip. […] Following this, 100 nM human VEGF-A or PBST were injected for 180 seconds (leading to saturation) followed by a PBST wash of 360 seconds. Finally, 100 nM human serum albumin or PBST were injected for 180 seconds followed by a PBST wash of 600 seconds.

Assay [2] concerns the target B1. Nature of the assay: cell-based or functional assay.
Assay [3] deals with T1, human HGF. Nature of the assay: cell-based or functional assay.
In assay [4] the target is B1. Nature of the assay: VEGF-A competition ELISA as in Example 3; competitor: immobilised anti-VEGF-A monoclonal antibody. As to the method:
(§1) After washing away any unbound substances, an enzyme-linked polyclonal antibody specific for VEGF-A is added to the wells. Following a wash to remove any unbound antibody-enzyme reagent, a substrate solution is added to the wells and color develops in proportion to the amount of VEGF-A bound in the initial step. The color development is stopped and the intensity of the color is measured. […] IC₅₀ values were calculated from such titration curves obtained as described above using Graph Pad Prism software and standard procedures known to the person skilled in the art. For designed ankyrin repeat domains with binding specificity to HGF, a cMet receptor competition assay was performed. For that purpose, 5 nM of human cMet receptor in PBS were immobilized on Maxisorp plates overnight at 4° C. After washing with PBS 0.05% TWEEN 20, the plate was blocked for 2 h with shaking at 300 rpm using PBS containing 0.05% TWEEN 20 and 0.25% Casein at RT. A constant concentration of 5 nM human HGF was pre-incubated for 30 min at RT with a 1000 nM-1 pM of Proteins #23, #26, #28, and #29 (1:4 dilution series each) on a dilution plate in PBS 0.05% TWEEN 20. After washing of the ELISA plate with PBS 0.05% TWEEN, pre-incubated samples were transferred to the ELISA plate and plate was incubated for 2 h at RT with shaking at 300 rpm. […] Readout was done at A450 using A620 as reference wavelength. […]

Assay [5] addresses biotinylated VEGF-A165 (Reliatech, #300-076Bi-L) (UniProt P15692-4 27-191, biotinylated). The experiment in a line: VEGF-A/VEGFR-2 competition FRET (HTRF); 10 nM VEGF-R2-Fc, 10 nM biotinylated VEGF-A165. As to the method:
Such competition FRET and ELISA assays are well known to the person skilled in the art. […] In parallel, 5 μl of Streptavidin-Tb (streptavidin-Lumi4-terbium cryptate donor, Cisbio #610SATLB) and 5 μl of PAb anti-hIgG-de (D2-conjugated goat anti-Human IgG, Cisbio #61 HFCDAA) were added to 500 μl of PBST-BSA buffer and incubated for 20 minutes (2× reagent). Ten μl/well of 2× reagent were dispensed in a 384-well HTRF white-plate (Thermo Fisher Scientific Inc.) and 5 μl/well of four-time concentration hVEGF-R2-Fc fusion (Reliatech #SFC-008) were added. Five μl of the preincubated competition mixture were then added to wells. The complete reaction mix was incubated in the dark for 1 hour at room temperature before the fluorescence read out using a fluorescence reader. […] The read-out was done for A665 nm and […] wavelength (Excitation 340 nm).
On the technique in general: TR-FRET usually uses a lanthanide donor and a delayed reading to cut background.

In assay [6] the target is T1, human HGF. The experiment in a line: HGF/cMet competition ELISA as in Example 3. The method, then:
as §1

The target of assay [7] is B1. The experiment in a line: VEGF-A competition binding ELISA (FIG. 7C). The method, then: as §1
A general note: In an ELISA, binding on a coated surface is turned into a signal by an enzyme label.

Assay [8] has as its target cynomolgus monkey serum albumin (cynomolgus monkey, UniProt A2V9Z4 25-608). Nature of the assay: ELISA, immobilised target. As to the method:
(§2) 100 μl or 50 μl of 20 nM target (VEGF-A, HGF, or serum albumin) in PBS per well were immobilized in a Maxisorp plate (Nunc, Denmark) overnight at 4° C. After washing 5 times with 300 μl PBST (PBS supplemented with 0.1% Tween 20), the wells were blocked with 300 μl PBST-C (PBST supplemented with 0.25% casein) for 2 h at room temperature with shaking at 450 rpm on a Titramax 1000 shaker (Heidolph, Germany). […] After washing 5 times as described above, bound anti-designed ankyrin repeat domain antibody was detected using 100 μl or 50 μl/well goat anti-rabbit IgG-HRP conjugate in PBST-C for 1 h at room temperature with shaking at 450 rpm. After washing 5 times as described above, the ELISA was then developed using 100 μl BM soluble blue POD substrate (Roche, Switzerland), diluted 1:4 in water. The reaction was stopped after 5 min using 100 μl 1 M H₂SO₄. The OD (OD 450 nm-OD 620 nm) was then recorded.
(§3) Cynomolgus monkey VEGF-A is identical to human VEGF-A and was thus not tested separately.

The target in assay [9] is dog serum albumin (dog, UniProt P49822 25-608). The experiment in a line: ELISA, immobilised target. As to the method:
as §2, §3

The target in assay [10] is mouse serum albumin (mouse, UniProt P07724 25-608). Nature of the assay: ELISA, immobilised target. As to the method:
as §2, §3

For assay [11], the target named is T2, human serum albumin (human, UniProt P02768 25-609).
T2 construct: For SEC-MALS purified from CSL Behring 20% solution; also called HSA; SA (human)
Nature of the assay: ELISA, immobilised target. The method, then:
as §2, §3

The target of assay [12] is B1. The experiment in a line: ELISA, immobilised target. The method, then: as §2, §3
Assay [13] concerns the target T1, human HGF. Nature of the assay: ELISA, immobilised target. The method, then:
as §2, §3

The target of assay [14] is T3, mouse VEGF-A (mouse, UniProt Q00731-2 27-190, limits assumed).
T3 sequence (looked up): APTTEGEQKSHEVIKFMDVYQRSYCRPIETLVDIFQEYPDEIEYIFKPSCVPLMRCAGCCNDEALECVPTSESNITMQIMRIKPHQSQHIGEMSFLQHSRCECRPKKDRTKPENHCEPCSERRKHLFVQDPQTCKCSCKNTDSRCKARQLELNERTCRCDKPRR
Nature of the assay: ELISA, immobilised target. As to the method: as §2, §3

Assay [15] deals with cynomolgus monkey HGF (cynomolgus monkey, UniProt C9E9X5 32-728). The experiment in a line: ELISA, immobilised target. The method, then: as §2, §3
Assay [16] deals with rat serum albumin (rat, UniProt P02770 25-608). Nature of the assay: ELISA, immobilised target. The method, then:
as §2, §3

The target in assay [17] is T4, rat VEGF-A (rat, UniProt P16612-2 27-190, limits assumed).
T4 sequence (looked up): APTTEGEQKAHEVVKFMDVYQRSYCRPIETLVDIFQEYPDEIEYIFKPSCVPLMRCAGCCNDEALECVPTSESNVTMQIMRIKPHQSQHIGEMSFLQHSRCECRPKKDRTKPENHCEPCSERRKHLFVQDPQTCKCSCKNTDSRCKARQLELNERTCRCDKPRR
Nature of the assay: ELISA, immobilised target. As to the method: as §2, §3

Assay [18] deals with mouse HGF (mouse, UniProt Q08048 33-728). The experiment in a line: ELISA, immobilised target. As to the method:
as §2, §3

In assay [19] the target is T5, Human PDGF-AB (human, UniProt P04085 87-211; P01127 82-190, limits assumed).
T5 construct: Heterodimer by its name
The experiment in a line: ELISA, immobilised target.

Assay [20] deals with B1. Nature of the assay: ELISA, immobilised target. The source holds these as a separate data set.
Assay [21] addresses T6, Human VEGF-C (human, UniProt P49767 103-227, limits assumed).
T6 sequence (looked up): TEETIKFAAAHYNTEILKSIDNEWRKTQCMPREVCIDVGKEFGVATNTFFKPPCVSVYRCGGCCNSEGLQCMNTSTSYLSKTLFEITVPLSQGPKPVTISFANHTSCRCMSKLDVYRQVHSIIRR
The experiment in a line: ELISA, immobilised target.

T1 sequence (P14210 32-728 limits assumed): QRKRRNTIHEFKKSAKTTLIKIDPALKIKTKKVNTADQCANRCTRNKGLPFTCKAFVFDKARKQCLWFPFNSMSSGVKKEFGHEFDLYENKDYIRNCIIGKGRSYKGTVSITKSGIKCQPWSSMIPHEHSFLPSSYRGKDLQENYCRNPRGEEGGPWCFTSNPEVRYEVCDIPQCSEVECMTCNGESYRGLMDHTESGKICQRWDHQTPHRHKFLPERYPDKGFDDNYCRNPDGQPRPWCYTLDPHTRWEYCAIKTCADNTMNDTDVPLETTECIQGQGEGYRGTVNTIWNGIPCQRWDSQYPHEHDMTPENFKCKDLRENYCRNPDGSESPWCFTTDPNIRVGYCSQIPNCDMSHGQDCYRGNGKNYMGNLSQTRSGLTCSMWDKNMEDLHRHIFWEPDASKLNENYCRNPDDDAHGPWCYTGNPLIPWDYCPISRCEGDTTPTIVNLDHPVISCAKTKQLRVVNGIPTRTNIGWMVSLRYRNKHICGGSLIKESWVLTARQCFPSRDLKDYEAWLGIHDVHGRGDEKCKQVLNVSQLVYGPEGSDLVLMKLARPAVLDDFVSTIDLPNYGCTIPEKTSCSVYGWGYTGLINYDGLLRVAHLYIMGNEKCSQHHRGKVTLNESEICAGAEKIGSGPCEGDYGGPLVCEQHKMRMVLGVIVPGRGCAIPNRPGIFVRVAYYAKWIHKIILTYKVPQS
Chain of dog serum albumin (P49822 25-608 limits assumed): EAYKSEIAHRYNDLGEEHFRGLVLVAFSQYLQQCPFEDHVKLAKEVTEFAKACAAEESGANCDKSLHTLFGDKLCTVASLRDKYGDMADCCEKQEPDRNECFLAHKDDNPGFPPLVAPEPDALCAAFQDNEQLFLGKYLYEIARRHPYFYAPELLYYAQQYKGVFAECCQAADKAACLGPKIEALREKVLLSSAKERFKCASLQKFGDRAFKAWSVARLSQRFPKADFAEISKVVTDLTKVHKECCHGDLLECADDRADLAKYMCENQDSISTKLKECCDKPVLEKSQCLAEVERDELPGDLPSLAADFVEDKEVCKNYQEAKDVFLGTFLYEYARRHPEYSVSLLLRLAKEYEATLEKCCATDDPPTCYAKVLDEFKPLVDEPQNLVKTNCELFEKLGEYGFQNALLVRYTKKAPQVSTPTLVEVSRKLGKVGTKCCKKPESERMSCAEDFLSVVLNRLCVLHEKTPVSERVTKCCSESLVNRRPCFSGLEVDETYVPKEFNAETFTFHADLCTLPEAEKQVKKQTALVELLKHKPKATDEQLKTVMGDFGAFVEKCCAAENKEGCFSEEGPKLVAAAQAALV
Chain of mouse HGF (Q08048 33-728 limits assumed): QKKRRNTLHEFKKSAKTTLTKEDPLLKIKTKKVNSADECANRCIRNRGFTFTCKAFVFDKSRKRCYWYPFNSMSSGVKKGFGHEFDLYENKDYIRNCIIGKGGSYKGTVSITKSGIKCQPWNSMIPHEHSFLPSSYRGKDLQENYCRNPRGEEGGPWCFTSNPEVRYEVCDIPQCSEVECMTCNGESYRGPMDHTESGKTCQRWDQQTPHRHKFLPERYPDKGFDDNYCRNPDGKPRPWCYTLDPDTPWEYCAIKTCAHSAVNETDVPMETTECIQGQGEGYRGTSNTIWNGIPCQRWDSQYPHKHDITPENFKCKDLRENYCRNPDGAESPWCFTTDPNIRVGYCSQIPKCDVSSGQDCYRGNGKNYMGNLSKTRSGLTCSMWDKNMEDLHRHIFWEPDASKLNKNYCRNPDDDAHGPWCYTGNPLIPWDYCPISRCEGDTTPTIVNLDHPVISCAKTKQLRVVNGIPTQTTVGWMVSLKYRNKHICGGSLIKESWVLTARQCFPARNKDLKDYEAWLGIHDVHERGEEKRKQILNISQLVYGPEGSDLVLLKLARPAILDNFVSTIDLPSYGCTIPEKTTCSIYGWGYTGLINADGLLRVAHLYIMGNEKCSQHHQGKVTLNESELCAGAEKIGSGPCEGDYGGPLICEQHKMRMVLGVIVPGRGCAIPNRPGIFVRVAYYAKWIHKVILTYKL
Chain of cynomolgus monkey serum albumin (A2V9Z4 25-608 limits assumed): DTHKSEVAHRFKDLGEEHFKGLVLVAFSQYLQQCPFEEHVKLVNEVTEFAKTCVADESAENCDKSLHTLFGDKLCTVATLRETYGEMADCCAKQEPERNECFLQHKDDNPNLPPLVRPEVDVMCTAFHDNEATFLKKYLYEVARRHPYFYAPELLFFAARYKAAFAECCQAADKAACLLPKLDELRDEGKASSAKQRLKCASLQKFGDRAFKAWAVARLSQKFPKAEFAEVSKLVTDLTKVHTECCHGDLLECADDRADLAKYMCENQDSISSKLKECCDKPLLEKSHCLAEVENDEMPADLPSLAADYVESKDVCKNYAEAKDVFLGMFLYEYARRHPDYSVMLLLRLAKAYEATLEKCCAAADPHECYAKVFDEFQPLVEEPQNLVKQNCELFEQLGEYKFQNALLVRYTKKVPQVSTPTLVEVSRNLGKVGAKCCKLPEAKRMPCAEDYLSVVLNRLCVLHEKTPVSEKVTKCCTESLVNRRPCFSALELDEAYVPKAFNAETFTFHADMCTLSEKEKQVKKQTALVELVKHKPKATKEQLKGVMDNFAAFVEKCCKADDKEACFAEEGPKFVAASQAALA
Chain of rat serum albumin (P02770 25-608 limits assumed): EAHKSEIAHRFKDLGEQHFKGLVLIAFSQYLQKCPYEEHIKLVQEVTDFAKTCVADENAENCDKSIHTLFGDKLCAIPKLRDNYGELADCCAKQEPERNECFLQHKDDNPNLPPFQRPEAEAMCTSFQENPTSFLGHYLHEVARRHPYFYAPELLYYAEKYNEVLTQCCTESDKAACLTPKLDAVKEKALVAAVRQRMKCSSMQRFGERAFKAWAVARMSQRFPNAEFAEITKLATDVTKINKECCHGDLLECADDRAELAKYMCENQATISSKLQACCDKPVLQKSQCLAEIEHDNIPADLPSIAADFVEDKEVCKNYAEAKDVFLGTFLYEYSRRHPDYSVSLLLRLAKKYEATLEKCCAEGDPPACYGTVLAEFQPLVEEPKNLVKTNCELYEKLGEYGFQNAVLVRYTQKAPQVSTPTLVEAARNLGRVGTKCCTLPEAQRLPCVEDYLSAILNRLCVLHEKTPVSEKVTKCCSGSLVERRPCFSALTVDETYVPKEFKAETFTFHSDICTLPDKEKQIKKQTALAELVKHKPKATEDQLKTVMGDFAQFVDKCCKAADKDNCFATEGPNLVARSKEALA
T2 sequence (P02768 25-609 limits assumed): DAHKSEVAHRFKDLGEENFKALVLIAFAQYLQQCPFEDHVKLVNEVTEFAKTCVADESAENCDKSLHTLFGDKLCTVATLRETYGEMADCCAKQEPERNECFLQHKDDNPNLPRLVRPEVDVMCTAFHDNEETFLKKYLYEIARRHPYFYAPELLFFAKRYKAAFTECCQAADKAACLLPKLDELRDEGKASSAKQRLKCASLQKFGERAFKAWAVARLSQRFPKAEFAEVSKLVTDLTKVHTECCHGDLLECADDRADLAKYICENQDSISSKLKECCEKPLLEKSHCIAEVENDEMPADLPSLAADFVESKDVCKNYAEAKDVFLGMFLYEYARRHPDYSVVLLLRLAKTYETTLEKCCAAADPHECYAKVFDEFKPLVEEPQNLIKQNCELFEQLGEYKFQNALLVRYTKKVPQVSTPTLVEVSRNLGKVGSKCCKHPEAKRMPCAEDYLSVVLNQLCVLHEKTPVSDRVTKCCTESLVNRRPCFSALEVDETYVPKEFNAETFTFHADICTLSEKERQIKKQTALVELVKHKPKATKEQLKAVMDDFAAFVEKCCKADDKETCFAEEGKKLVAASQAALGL
T5 sequence (P01127 82-190 limits assumed, chain 2 of 2, other chains not shown): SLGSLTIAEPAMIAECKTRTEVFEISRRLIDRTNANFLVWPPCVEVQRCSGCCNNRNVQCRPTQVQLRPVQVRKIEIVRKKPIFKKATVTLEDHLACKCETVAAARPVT

As for B1, in assay [1], the binding result is reported as “no binding (tested: 100 nM)”.

B2: Protein #134 (designed binder)
chain: GSDLGKKLLEAARAGQDDEVRELLKAGADVNAKDYFSHTPLHLAARNGHLKIVEVLLKAGADVNAKDFAGKTPLHLAANEGHLEIVEVLLKAGADVNAQDIFGKTPADIAADAGHEDIAEVLQKAAGSPTPTPTTPTPTPTTPTPTPTGSDLGKKLLEAARAGQDDEVRILLKAGADVNAKDRYGDTPLHLAADIGHLEIVEVLLKAGADVNAEDYFGNTPLHLAASYGHLEIVEVLLKAGADVNAKDDYGNTPLHLAANTGHLEIVEVLLKAGADVNAQDKSGKTPADLAADAGHEDIAEVLQKAAGSPTPTPTTPTPTPTTPTPTPTGSDLDKKLLEAARAGQDDEVRILLKAGADVNAKDSTGWTPLHLAAPWGHPEIVEVLLKAGADVNAKDFQGWTPLHLAAAAGHLEIVEVLLKAGADVNAQDKSGKTPADLAADAGHEDIAEVLQKAAGSPTPTPTTPTPTPTTPTPTPTGSDLGKKLLEAARAGQDDEVRELLKAGADVNAKDYFSHTPLHLAARNGHLKIVEVLLKAGADVNAKDFAGKTPLHLAANEGHLEIVEVLLKAGADVNAQDIFGKTPADIAADAGHEDIAEVLQKAA
notes: Four designed ankyrin repeat domains (serum albumin, HGF, VEGF-A, serum albumin); one molecule is used here
For the molecule B2, in assay [2], the “Inhibition of VEGF-A-induced HUVEC proliferation, IC50” value is 5.7 ng/ml and 91.3 pM. Further, the “inhibition of proliferation of HUVECs, IC50” value in assay [2] lay in the range of 0.1 to 0.15 nM. Further, the “Inhibition of cMet phosphorylation in A549 cells, IC50” value in assay [3] came to 0.184 nM. Besides, the “inhibition of cMet phosphorylation in A549 cells, IC50” value in assay [3] is less than 1 nM. Moreover, the IC50 (in general, the concentration that inhibits the measured activity by half) in assay [4] is 0.0045 nM; in assay [5] it was 0.6 nM; in [6] it was 0.92 nM; in [7], less than 0.01 nM. In addition, the EC50 (usually the concentration giving half of the maximal effect) was found to be 0.017 nM in assay [8]; 0.023 nM in assay [9]; 0.015 nM in [10]; 0.013 nM in [11]; 0.024 nM in [12]; 0.024 nM in assay [13]. For the same molecule, the EC50 in assay [14] stood at 0.021 nM; in assay [15] it was 0.04 nM; in assay [16], 0.017 nM; in assay [17], 0.022 nM; in [18], 0.045 nM; in [20], 0.024 nM. Moreover, the binding result in [19] and in assay [21] was “no binding (tested: 100 nM to 0.01 pM)” in each case.
